Data: paper PMC4255524

Tests used:
[1] = target: N-terminal domain of Chlamydomonas reinhardtii BBS1 (residues 1–425) (Chlamydomonas reinhardtii); assay: ITC
[2] = target: N-terminal domain of Homo sapiens BBS1 with the patient mutation E234K (Homo sapiens) (UniProt Q8NFJ9); assay: ITC
Chain of UniProt Q8NFJ9 (Q8NFJ9 1-417 E234K): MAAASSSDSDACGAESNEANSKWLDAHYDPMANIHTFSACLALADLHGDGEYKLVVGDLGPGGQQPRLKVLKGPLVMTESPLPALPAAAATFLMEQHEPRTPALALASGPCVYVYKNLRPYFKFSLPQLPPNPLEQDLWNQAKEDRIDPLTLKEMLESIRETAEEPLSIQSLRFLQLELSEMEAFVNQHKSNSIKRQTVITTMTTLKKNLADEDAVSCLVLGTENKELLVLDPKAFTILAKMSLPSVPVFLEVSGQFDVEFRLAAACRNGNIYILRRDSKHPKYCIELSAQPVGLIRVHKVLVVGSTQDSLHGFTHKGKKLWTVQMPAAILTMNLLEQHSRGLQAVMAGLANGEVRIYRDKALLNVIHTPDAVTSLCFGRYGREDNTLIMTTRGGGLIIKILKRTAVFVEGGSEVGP

Row | Molecule | Kd [1] [nM] | stoichiometry N [1] | Kd [2] [nM]
1 | Chlamydomonas reinhardtii ARL6ΔN (residues 1–15 deleted), GTP-bound (domain or fragment) | 350 | 1 | 
2 | untagged Homo sapiens ARL6 Q73L ΔN (domain or fragment) KEVHVLCLGLDNSGKTTIINKLKPSNAQSQNILPTIGFSIEKFKSSSLSFTVFDMSGLGRYRNLWEHYYKEGQAIIFVIDSSDRLRMVVAKEELDTLLNHPDIKHRRIPILFFANKMDLRDAVTSVKVSQLLCLENIKDKPWHICASDAIKGEGLQEGVDWLQDQIQTVKT |  |  | 350
